Data published in paper PMC8830441, “Interaction of TLK1 and AKTIP as a Potential Regulator of AKT Activation in Castration-Resistant Prostate Cancer Progression” (Pathophysiology, 2021).

Molecular target: T1, Full-length, wild-type recombinant His-tagged TLK1B (human, UniProt Q9UKI8-3 1-549)
T1 construct: wild-type, full-length TLK1B; also called His-TLK1B; recombinant TLK1; source: bacterial expression plasmid, recombinant, purified according to the published literature
T1 sequence (looked up): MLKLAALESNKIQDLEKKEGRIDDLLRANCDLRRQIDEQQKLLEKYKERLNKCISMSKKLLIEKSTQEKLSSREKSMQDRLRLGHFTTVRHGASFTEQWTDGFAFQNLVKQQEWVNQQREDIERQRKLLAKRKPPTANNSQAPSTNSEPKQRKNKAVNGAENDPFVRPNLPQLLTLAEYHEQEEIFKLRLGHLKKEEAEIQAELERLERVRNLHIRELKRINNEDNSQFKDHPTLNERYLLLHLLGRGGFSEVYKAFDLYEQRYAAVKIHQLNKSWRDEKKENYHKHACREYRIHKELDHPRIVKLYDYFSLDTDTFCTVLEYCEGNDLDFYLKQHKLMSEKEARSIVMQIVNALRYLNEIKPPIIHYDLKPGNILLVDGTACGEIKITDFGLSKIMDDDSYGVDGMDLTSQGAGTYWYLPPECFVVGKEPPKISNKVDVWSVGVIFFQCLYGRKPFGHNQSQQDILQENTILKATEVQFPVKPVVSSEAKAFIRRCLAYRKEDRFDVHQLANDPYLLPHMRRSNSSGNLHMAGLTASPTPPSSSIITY
Assay: pull-down; His-TLK1B and GST-AKTIP, 1 µg of each, incubated on ice 30 min, isolated on Ni-NTA agarose beads, washed with cell lysis buffer, WB for AKTIP
Details: both partners purified

B1: wild-type full-length human GST-AKTIP (natural protein, UniProt Q9H8T0 1-292, looked up)
chain: MNPFWSMSTSSVRKRSEGEEKTLTGDVKTSPPRTAPKKQLPSIPKNALPITKPTSPAPAAQSTNGTHASYGPFYLEYSLLAEFTLVVKQKLPGVYVQPSYRSALMWFGVIFIRHGLYQDGVFKFTVYIPDNYPDGDCPRLVFDIPVFHPLVDPTSGELDVKRAFAKWRRNHNHIWQVLMYARRVFYKIDTASPLNPEAAVLYEKDIQLFKSKVVDSVKVCTARLFDQPKIEDPYAISFSPWNPSVHDEAREKMLTQKKPEEQHNKSVHVAGLSWVKPGSVQPFSKEEKTVAT
notes: also called GST-tagged AKTIP; source: bacterial expression plasmid, recombinant, purified from bacteria according to the published literature
  binding result: binds
